Measured values published in patent US10912839B2, “Methods of treating cancer using compounds containing a vascular disrupting agent” (priority 2008, dated 2021).
Non-standard residues stand in square brackets, D forms with d. Residues, ends and D or L forms follow the SMILES beside them. *: point of attachment. NH(Colchicin-10-yl) = COc1cc2c(c(OC)c1OC)-c1ccc(N*)c(=O)cc1[C@@H](NC(C)=O)CC2; FITC = O=C1OC2(c3ccc(O)cc3Oc3cc(O)ccc32)c2ccc(NC(=S)*)cc21; hPhe = N[C@@H](CCc1ccccc1)C(=O)O; Cit = NC(=O)NCCC[C@H](N)C(=O)O; βAla = NCCC(=O)O

Key:
[1] = Ex vivo prodrug metabolism in HT1080 tumour homogenate (LC/MS/MS); format: in vitro ADME, human
Excerpt: (§1) Liver was representative of all normal tissues analysed. (FIG. 5) • d.
(§2) Half lives are the mean taken from four independent experiments. Liver represent murine liver homogenate and tumour represents HT1080

[2] = Tissue levels of prodrug and VDA2 after intraperitoneal dosing of HT1080 tumour-bearing mice; format: in vivo
Excerpt: as §1

[3] = Ex vivo prodrug stability in normal mouse plasma (LC/MS/MS); details: normal mouse plasma ex vivo
Excerpt: Prodrug cleavage and metabolism were detected using LC/MS/MS. • a.

[4] = Off-target toxicity by mouse body weight in antitumour study; format: in vivo, Balb/C mice
Experimental: ICT-2552 and ICT-2588 (‘prodrug’) were administered as a single dose via the intraperitoneal route to Balb/C mice bearing subcutaneous HT1080 xenografts. Each of the nine dosing groups comprised 8 mice. The anti-tumour effects of the compounds were assessed by determination of tumour volume and the existence of off-target toxicity was ascertained via monitoring mouse body weight.
The dosing groups evaluated ICT-2588 (prodrug) relative to the molar equivalent dose of ICT-2552 (warhead), and were: • 10% DMSO/oil (solvent control) • ICT-2588 at 37.5 mg/kg; 50.0 mg/kg; 62.5 mg/kg; 75.0 mg/kg • ICT-2552 at 7.5 mg/kg; 10.0 mg/kg; 12.5 mg/kg; 15 mg/kg Results
The weight of all mice was within the tolerated loss of 15% of bodyweight, therefore the compounds are not classified as toxic to the whole body system.

[5] = Ex vivo prodrug stability in normal mouse liver homogenate (LC/MS/MS); format: in vitro ADME
Excerpt: as §1, §2

## COc1cc2c(c(OC)c1OC)-c1ccc(NC(=O)[C@H](Cc3ccc(O)cc3)NC(=O)[C@H](CC(C)C)NC(=O)[C@H](Cc3ccc(O)cc3)NC(=O)[C@H](CCc3ccccc3)NC(=O)CNC(=O)[C@H](CCCNC(N)=O)NC(=O)[C@H](CO)NC(=O)[C@H](CCCNC(=N)N)NC(=O)CCNC(=S)Nc3ccc4c(c3)C(=O)OC43c4ccc(O)cc4Oc4cc(O)ccc43)c(=O)cc1[C@@H](NC(C)=O)CC2 [ICT-2588] ({FITC-βAla}-RS[Cit]G[hPhe]YLY-{NH(Colchicin-10-yl)})
[1]; HT1080 (high MT-MMP) relative to MCF7 (low MT-MMP) homogenate
  metabolism in tumour homogenate, high versus low MT-MMP: metabolised rapidly
[1]; human, tissue homogenate, HT1080 tumour homogenate, mean of four independent experiments, read-out: Tumour t½
  half-life: 0.55 h
[2]; HT1080 tumour
  VDA2 levels in tumour following prodrug administration: High concentrations
[2]; HT1080 tumour-bearing mice
  prodrug accumulation in tissues: accumulated and was detected in all tissues analysed
  site of highest prodrug levels: Highest prodrug-2 levels were observed in the tumour
[2]; plasma
  VDA2 in plasma following prodrug administration: undetectable
[2]; tumour vs normal tissues
  VDA2 level in tumour relative to normal tissues: 10 times higher
[2]; tumour, 48 hours
  levels of prodrug-2 and VDA2 in tumour 48 hours post administration: still detectable
[3]
  stability in plasma: remained intact
[4]; ICT-2588 37.5 mg/kg
  Maximum % weight loss: 3 (3) %
  day of maximum weight loss: 3 (3) day
[4]; ICT-2588 50.0 mg/kg
  Maximum % weight loss: 5%
  day of maximum weight loss: 3 days
[4]; ICT-2588 62.5 mg/kg
  Maximum % weight loss: 4%
  day of maximum weight loss: 3 days
[4]; ICT-2588 75.0 mg/kg
  Maximum % weight loss: 5%
  day of maximum weight loss: 3 days
[5]; mouse, tissue homogenate, murine liver homogenate, mean of four independent experiments, read-out: Liver t½
  half-life: 2.48 h
[5]; normal mouse liver homogenate ex vivo
  stability in liver homogenate: remained stable
